Assay results as given in article PMC10512346, “Cleavage of α-1,4-glycosidic linkages by the glycosylphosphatidylinositol-anchored α-amylase AgtA decreases the molecular weight of cell wall α-1,3-glucan in Aspergillus oryzae” (Frontiers in Fungal Biology, 2023).

Tests used:
Assay in all cases: purified protein
Format in all cases: biochemical, Aspergillus oryzae
purified protein [1] = substrate: O=[N+]([O-])c1ccc(O[C@H]2O[C@H](CO)[C@@H](O[C@H]3O[C@H](CO)[C@@H](O[C@H]4O[C@H](CO)[C@@H](O[C@H]5O[C@H](CO)[C@@H](O[C@H]6O[C@H](CO)[C@@H](O)[C@H](O)[C@H]6O)[C@H](O)[C@H]5O)[C@H](O)[C@H]4O)[C@H](O)[C@H]3O)[C@H](O)[C@H]2O)cc1; conditions: 50 mM sodium acetate pH 5.5, 40°C, apparent value, hydrolysis plus transglycosylation, 1.6–100 mM substrate
purified protein [2] = substrate: O=[N+]([O-])c1ccc(O[C@H]2O[C@H](CO)[C@@H](O[C@H]3O[C@H](CO)[C@@H](O[C@H]4O[C@H](CO)[C@@H](O[C@H]5O[C@H](CO)[C@@H](O[C@H]6O[C@H](CO)[C@@H](O[C@H]7O[C@H](CO)[C@@H](O)[C@H](O)[C@H]7O)[C@H](O)[C@H]6O)[C@H](O)[C@H]5O)[C@H](O)[C@H]4O)[C@H](O)[C@H]3O)[C@H](O)[C@H]2O)cc1; conditions: 50 mM sodium acetate pH 5.5, 40°C, apparent value, hydrolysis plus transglycosylation, 1.6–50 mM substrate
purified protein [3] = substrate: O=[N+]([O-])c1ccc(O[C@H]2O[C@H](CO)[C@@H](O[C@H]3O[C@H](CO)[C@@H](O[C@H]4O[C@H](CO)[C@@H](O[C@H]5O[C@H](CO)[C@@H](O[C@H]6O[C@H](CO)[C@@H](O[C@H]7O[C@H](CO)[C@@H](O[C@H]8O[C@H](CO)[C@@H](O)[C@H](O)[C@H]8O)[C@H](O)[C@H]7O)[C@H](O)[C@H]6O)[C@H](O)[C@H]5O)[C@H](O)[C@H]4O)[C@H](O)[C@H]3O)[C@H](O)[C@H]2O)cc1; conditions: 50 mM sodium acetate pH 5.5, 40°C, apparent value, hydrolysis plus transglycosylation, 1.6–50 mM substrate
purified protein [4] = substrate: O=[N+]([O-])c1ccc(O[C@H]2O[C@H](CO)[C@@H](O[C@H]3O[C@H](CO)[C@@H](O[C@H]4O[C@H](CO)[C@@H](O[C@H]5O[C@H](CO)[C@@H](O[C@H]6O[C@H](CO)[C@@H](O[C@H]7O[C@H](CO)[C@@H](O[C@H]8O[C@H](CO)[C@@H](O[C@H]9O[C@H](CO)[C@@H](O)[C@H](O)[C@H]9O)[C@H](O)[C@H]8O)[C@H](O)[C@H]7O)[C@H](O)[C@H]6O)[C@H](O)[C@H]5O)[C@H](O)[C@H]4O)[C@H](O)[C@H]3O)[C@H](O)[C@H]2O)cc1; conditions: 50 mM sodium acetate pH 5.5, 40°C, apparent value, hydrolysis plus transglycosylation, 1.6–25 mM substrate

B1: rAoAgtA (Aspergillus oryzae RIB40) (protein)
chain: ATTAEWKSRSVYQTMTDRFARTDGSTTAPCNTTQGLYCGGTWRGTIDKLDYIQGMGFDAVMISPIVENIEGRVSYGEAYHGYWPLDLYSLNSHFGTHQDLLDLSEALHSRGMYLMMDTVINNMAYMTNGKDPAKNIDYSVFTPFNDSSYFHPYCKITDWNNYTNAQLCQTGDDKVALPDLFTEHEDVQQILEKWAKEIISTYSIDGLRIDAAKHVNPGFLKNFGDAIGAFMTGEVLQQEVDTICKYQNNYIGSVPNYPIYYSVLKAFTLGNTTDLANQVEIMKNSCDDVTALASFSENHDVARFASMTDDMALAKNVLTFTILYDGVPMIYQGQEQHLDGPGTPDNREAIWLTKYNTDAELYKLIAKLNTIRKHAYKLDPNYVSLQTYPIFRGGSELGFRKGVEGRQVVMLLSTQGSNSSAYNLTLPVSFNGGVQVMDVLNCVNYTVNPQSELIVPMDKGEPRVFFPTSLMPGSGLCGYTTANVSFVELKTKGAA
notes: residues 24-518 of 549 (signal peptide 1-23 and C-terminal GPI-anchor region removed), C-terminal PGGGS linker and His6 tag; secreted from Pichia pastoris SMD1168H with alpha-factor signal
Km (purified protein [1]): 61.8 mM
Vmax (purified protein [1]): 659 µM/min
kcat (purified protein [1]): 60 s⁻¹
kcat/Km (purified protein [1]): 970 M⁻¹ s⁻¹
Km (purified protein [2]): 45.6 mM
Vmax (purified protein [2]): 710 µM/min
kcat (purified protein [2]): 64.6 s⁻¹
kcat/Km (purified protein [2]): 1420 M⁻¹ s⁻¹
Km (purified protein [3]): 28.9 mM
Vmax (purified protein [3]): 402 µM/min
kcat (purified protein [3]): 36.7 s⁻¹
kcat/Km (purified protein [3]): 1270 M⁻¹ s⁻¹
Km (purified protein [4]): 25.1 mM
Vmax (purified protein [4]): 344 µM/min
kcat (purified protein [4]): 31.3 s⁻¹
kcat/Km (purified protein [4]): 1250 M⁻¹ s⁻¹
